How the values were obtained:
[1] = system: HIV-1; assay: HIV-1 particle release, p24 antigen capture ELISA in transfected HeLa cells; type: cell-based, human immunodeficiency virus type 1; settings: co-expression in HeLa cells
Description: FIG. 20B: Alternatively, HeLa cells were co-transfected with 1 μg of Vpu^+ or Vpu^− proviral genomes and 10 μg pHIV-TARluc (Luc) or pHIV-FTPR. Thirty-six hours after transfection the amount of p24 Gag in the media and cell pellets was quantified using an antigen capture ELISA. The relative particle release is given by the ratio of extracellular to intracellular p24. The data were normalized to the control (Luc). The error bars represent the error of the mean for three independent experiments.
Triplicate plates of 5×10^5 HeLa cells were transfected with 1 μg of Vpu^+ (MSMBA) or Vpu^− (DF101) proviral genomes and 10 μg of pHIV-UBP, pHIV-UBP-N, pHIV-FTPR or pHIV-TARluc. Thirty-six hrs after transfection, media were harvested and centrifuged at low-speed to remove cellular debris. The cells were washed with 1×PBS, resuspended in 1 ml of PBS, then pelleted at 5000×g in microfuge tubes. The cell pellets and media were treated with lysis buffer and applied to an HIV-1 p24 antigen assay kit following the instructions of the manufacturer (Coulter, Westbrook, Maine). Samples were processed along with positive controls to give quantitative levels of p24 Gag. Data were plotted as a function of the relative p24 units.

[2] = biological target: T1, hsc70 (Bos taurus, UniProt P19120); assay: UBP far-western analysis on hsc70; type: binding; settings: GST fusions as probe
T1 construct: purchased Stressgen
Excerpt: FIG. 13A: Thirty μg of HeLa cell lysate was separated by SDS-PAGE in three identical lanes, blotted to nitrocellulose and probed with either, no probe (none), GST alone, or GST-UBP. The far-western blot was then developed with anti-GST antibody to reveal bands which interact with UBP. The arrow to the right indicates a 70 kD band detected by the GST-UBP fusion. The numbers to the left of each blot represent molecular weights in kilodaltons. […] FIG. 13C, Samples from the GST-UBP pull down assay were analyzed by western blot for the presence hsc70. At the bottom of the gel, the contents of each reaction are indicated by the plus symbols. The NaCl concentration of the washing buffer (100, 200, 300, and 500 mM) is indicated at the top of each lane. The arrow to the right of the blot indicates the position of the hsc70 band.
The term “hsc70” is used when referring to both hsp70 and its nearly identical constitutive counterpart, hsc70. […] The numbers to the left of the blots indicate the molecular weights in kilodaltons. The diagram below the blots indicates regions of UBP contained in each fusion construct. The column to the right summarizes the results, where a plus symbol indicates binding and a minus symbol indicates no binding.
Western blots were performed using standard techniques. Briefly, 30 μg HeLa cytoplasmic extract or 20 ng of hsc70, hsp70, or hsp90 were denatured in 1×SDS sample buffer. The samples were loaded on a 10% polyacrylamide gel. Separated protein was transferred to nitrocellulose membranes. The membranes were blocked in 5% dry milk protein in TBS (20 mM Tris [pH 7.4], 100 mM NaCl) for 45 min. The gels with proteins separated on them were transferred to nitrocellulose and blocked against 5% dry milk protein in TBS for 45 min. Primary antibody, either anti-hsp70 or hsp90 monoclonal antibodies, or anti-UBP rabbit polyclonal antibody was incubated with the blots at appropriate concentrations (1:1000 dilutions for each) in 5% milk protein in TBS for 2 hours at 4° C. with gentle rocking. The membranes were washed with TBS for 10 minutes. […]

T1 sequence (P19120 2-650 limits assumed): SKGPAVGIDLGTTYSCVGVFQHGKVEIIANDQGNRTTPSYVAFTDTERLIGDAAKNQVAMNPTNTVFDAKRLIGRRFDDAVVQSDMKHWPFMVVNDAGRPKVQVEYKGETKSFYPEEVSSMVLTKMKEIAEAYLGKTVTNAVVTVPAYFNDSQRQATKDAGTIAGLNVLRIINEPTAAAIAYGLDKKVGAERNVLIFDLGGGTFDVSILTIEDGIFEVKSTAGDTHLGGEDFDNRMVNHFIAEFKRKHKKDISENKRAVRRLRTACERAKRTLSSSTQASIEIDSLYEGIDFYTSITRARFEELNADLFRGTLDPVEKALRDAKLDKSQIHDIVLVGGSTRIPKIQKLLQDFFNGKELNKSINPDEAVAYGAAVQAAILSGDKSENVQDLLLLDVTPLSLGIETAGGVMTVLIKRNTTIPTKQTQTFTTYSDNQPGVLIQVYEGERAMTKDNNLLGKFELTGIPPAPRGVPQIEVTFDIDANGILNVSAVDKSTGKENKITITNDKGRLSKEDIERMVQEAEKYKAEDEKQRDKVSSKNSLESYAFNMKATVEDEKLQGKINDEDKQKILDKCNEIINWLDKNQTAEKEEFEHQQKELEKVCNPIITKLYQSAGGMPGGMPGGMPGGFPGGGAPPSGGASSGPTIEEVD

B1: FTPR: UBP fragment containing TPR 2-4 with flanking charged residues (a.a. 81-209) (protein)
chain: TPPSEEDSAEAERLKTEGNEQMKVENFEAAVHFYGKAIELNPANAVYFCNRAAAYSKLGNYAGAVQDCERAICIDPAYSKAYGRMGLALSSLNKHVEAVAYYKKALELDPDNETYKSNLKIAELKLREA
- efficiency of virus particle exit (extracellular to intracellular p24 Gag) ([1]; Vpu present): slight increase
- efficiency of virus particle exit (extracellular to intracellular p24 Gag) ([1]; absence of Vpu): did not significantly increase

B2: N 1/2: N-terminal portion of UBP (a.a. 1-145) (protein)
chain: MDNKKRLAYAIIQFLHDQLRHGGLSSDAQESLEVAIQCLETAFGVTVEDSDLALPQTLPEIFEAAATGKEMPQDLRSPARTPPSEEDSAEAERLKTEGNEQMKVENFEAAVHFYGKAIELNPANAVYFCNRAAAYSKLGNYAGAV
modifications: left off: a dimerising Fc or GST
- interaction with hsc70 [2]: did not detectably interact
- efficiency of virus particle exit (extracellular to intracellular p24 Gag) ([1]; Vpu present): slight increase
- efficiency of virus particle exit (extracellular to intracellular p24 Gag) ([1]; absence of Vpu): did not significantly increase

B3: C 1/2: C-terminal half of UBP (a.a. 145-313) (protein)
chain: VQDCERAICIDPAYSKAYGRMGLALSSLNKHVEAVAYYKKALELDPDNETYKSNLKIAELKLREAPSPTGGVGSFDIAGLLNNPGFMSMASNLMNNPQIQQLMSGMISGGNNPLGTPGTSPSQNDLASLIQAGQQFAQQMQQQNPELIEQLRSQIRSRTPSASNDDQQE
modifications: left off: a dimerising Fc or GST
- interaction with hsc70 [2]: did not detectably interact

B4: TPR 2-4 (protein)
chain: KTEGNEQMKVENFEAAVHFYGKAIELNPANAVYFCNRAAAYSKLGNYAGAVQDCERAICIDPAYSKAYGRMGLALSSLNKHVEAVAYYKKALELDPDNETY
modifications: left off: a dimerising Fc or GST
- interaction with hsc70 [2]: capable of stable interaction

— patent US20050233963A1 (priority 2000, published 2005)
